Experimental findings from the RNAGym collection of RNA variant scans (doi:10.7554/elife.80360) are described below.

The chains are these.
B1: CPEB3 Ribozyme (parent)
chain: GGGGGCCACAGCAGAAGCGUUCACGUCGCGGCCCCUGUCAGAUUCUGGUGAAUCUGCGAAUUCUGCUGU

This data set covers variants of B1. As to the kind of experiment: self-cleavage, relative activity (ratio to wild type); higher = more cleavage; co-transcriptional.
With GGGGGCCACAGCAGGAGCGUUCACGUCGCGGCCCCUGUCAGAUUCUGGUGAAUCUGCGGAUUCUGCUGU [A15G A59G], the self-cleavage was found to be 0.994. To GGGGGCCACAGCAGGAGCGUUCACGUCGCGGCCCCUGUCAGAUUCUGGUGAAUCUGCGUAUUCUGCUGU [A15G A59U] belongs 0.785; to GGGGGCCACAGCAGCAGCGUUCACGUCGCGGCCCCUGUCAGAUUCUGGUGAAACUGCGAAUUCUGCUGU [A15C U53A], 0.651; to GGGGGCCACAGCAGCAGCGUUCACGUCGCGGCCCCUGUCAGAUACUGGUGAAUCUGCGAAUUCUGCUGU [A15C U44A], 0.662. With GGGGGCCACAGCAGCAGCGUUCACGUCGCGGCCCCUGUCAGAUCCUGGUGAAUCUGCGAAUUCUGCUGU [A15C U44C], the self-cleavage stood at 0.659. Next, GGGGGCCACAGCAGCAGCGUUCACGUCGCGGCCCCUGUCAGAUGCUGGUGAAUCUGCGAAUUCUGCUGU [A15C U44G]: 0.739; GGGGGCCACAGCAGCAGCGGUCACGUCGCGGCCCCUGUCAGAUUCUGGUGAAUCUGCGAAUUCUGCUGU [A15C U20G]: 0.139; GGGGGCCACAGCAGGAGCGUUCACGUCGCGGCACCUGUCAGAUUCUGGUGAAUCUGCGAAUUCUGCUGU [A15G C33A]: 0.798. To GGGGGCCACAGCAGGAGCGUUCACGUCGCGGCGCCUGUCAGAUUCUGGUGAAUCUGCGAAUUCUGCUGU [A15G C33G] belongs 0.534. Next, GGGGGCCACAGCAGGAGCGUUCACGUCGCGGCUCCUGUCAGAUUCUGGUGAAUCUGCGAAUUCUGCUGU [A15G C33U]: 0.999. For GGGGGCCACAGCAGGAGCGUUCACGUCGCGGCCCCUGUCAGAUUCUGGUGAAUGUGCGAAUUCUGCUGU [A15G C54G], the self-cleavage was 0.886. To GGGGGCCACAGCAGGAGCGUUCACGUCGCGGCCCCUGUCAGAUUCUGGUGAAUUUGCGAAUUCUGCUGU [A15G C54U] belongs 1.04; to GGGGGCCACAGCAGGAGCGUUCACGUCGCGGCCCCUGUCAGAUUCUGGUGAAUAUGCGAAUUCUGCUGU [A15G C54A], 0.914. For the variant GGGGGCCACAGCAGCAGCGUUCACGUCGCGGCCCCUGUCAGAUUCAGGUGAAUCUGCGAAUUCUGCUGU [A15C U46A], the self-cleavage amounted to 0.93. To GGGGGCCACAGCAGCAGCGUUCACGUCGCGGCCCCUGUCAGAUUCCGGUGAAUCUGCGAAUUCUGCUGU [A15C U46C] belongs 0.88; to GGGGGCCACAGCAGGAGCGUUCACGUCGCGGCCCCUGUAAGAUUCUGGUGAAUCUGCGAAUUCUGCUGU [A15G C39A], 0.833. To GGGGGCCACAGCAGGAGCGUUCACGUCGCGGCCCCUGUCGGAUUCUGGUGAAUCUGCGAAUUCUGCUGU [A15G A40G] belongs 0.996; to GGGGGCCACAGCAGCAGCGUUCACGUCGCGGCCCCCGUCAGAUUCUGGUGAAUCUGCGAAUUCUGCUGU [A15C U36C], 0.487.

On to GGGGGCCACAGCAGCAGCGUUCACGUCGCGGCCCCAGUCAGAUUCUGGUGAAUCUGCGAAUUCUGCUGU [A15C U36A], for which the self-cleavage came out at 0.288. To GGGGGCCACAGCAGCAGCGUUCACGUCGCGGCCCCGGUCAGAUUCUGGUGAAUCUGCGAAUUCUGCUGU [A15C U36G] belongs 0.214; to GGGGGCCACAGCAGCAGCGUUCACGUCGCGGCCCCUGUCAGAUUCUGGUGAAUCUGCGAAAUCUGCUGU [A15C U61A], 0.468; to GGGGGCCACAGCAGCAGCGUUCACGUCGCGGCCCCUGUCAGAUUCUGGUGAAUCUGCGAACUCUGCUGU [A15C U61C], 0.356. For the variant GGGGGCCACAGCAGCAGCGUUCACGUCGCGGCCCCUGUCAGAUUCUGGUGAAUCUGCGAAGUCUGCUGU [A15C U61G], the self-cleavage came out at 0.723.

On to GGGGGCCACAGCAGGAGCGUUCACGUCGCGGCCCCUGUCAGAUUGUGGUGAAUCUGCGAAUUCUGCUGU [A15G C45G], for which the self-cleavage was found to be 0.965. As for GGGGGCCACAGCAGGAGCGUUCACGUCGCGGCCCCUGUCAGAUUUUGGUGAAUCUGCGAAUUCUGCUGU [A15G C45U], the self-cleavage is 1.02. Next, GGGGGCCACAGCAGGAGCGUUCACGUCGCGGCCCCUGUCAGAUUAUGGUGAAUCUGCGAAUUCUGCUGU [A15G C45A]: 1; GGGGGCCACAGCAGGAGCGUUCACGUCGCGGCCCCUGUCAGAUUCUGGUGAAUCUGCGAAUUCUGCUGU [A15G]: 1. Next, GGGGGCCACAGCAGCAGCGUUCACGUCGCGGCCCCUGGCAGAUUCUGGUGAAUCUGCGAAUUCUGCUGU [A15C U38G]: 0.292; GGGGGCCACAGCAGCAGCGUUCACGUCGCGGCCCCUGCCAGAUUCUGGUGAAUCUGCGAAUUCUGCUGU [A15C U38C]: 0.571; GGGGGCCACAGCAGCAGCGUUCACGUCGCGGCCCCUGACAGAUUCUGGUGAAUCUGCGAAUUCUGCUGU [A15C U38A]: 0.595.

Regarding GGGGGCCACAGCAGCAGCGUCCACGUCGCGGCCCCUGUCAGAUUCUGGUGAAUCUGCGAAUUCUGCUGU [A15C U21C], the self-cleavage stood at 0.51. Next, GGGGGCCACAGCAGCAGCGUACACGUCGCGGCCCCUGUCAGAUUCUGGUGAAUCUGCGAAUUCUGCUGU [A15C U21A]: 0.791; GGGGGCCACAGCAGGAGAGUUCACGUCGCGGCCCCUGUCAGAUUCUGGUGAAUCUGCGAAUUCUGCUGU [A15G C18A]: 0.192. Next, GGGGGCCACAGCAGGAGGGUUCACGUCGCGGCCCCUGUCAGAUUCUGGUGAAUCUGCGAAUUCUGCUGU [A15G C18G]: 0.198; GGGGGCCACAGCAGGAGUGUUCACGUCGCGGCCCCUGUCAGAUUCUGGUGAAUCUGCGAAUUCUGCUGU [A15G C18U]: 0.792; GGGGGCCACAGCAGCAGCGUUCACGUCGCGGCCCCUGUCAGAUUCUGGUGAAUCUGCGAAUUCCGCUGU [A15C U64C]: 0.958. To GGGGGCCACAGCAGCAGCGUUCACGUCGCGGCCCCUGUCAGAUUCUGGUGAAUCUGCGAAUUCAGCUGU [A15C U64A] belongs 0.952; to GGGGGCCACAGCAGCAGCGUUCACGUCGCGGCCCCUGUCAGAUUCUGGUGAAUCUGCGAAUUCGGCUGU [A15C U64G], 0.91; to GGGGGCCACAGCAGGAGCGUUCACGUCGCGGCCCCUGUCAGAUUCUGGUGAAUCUGCGACUUCUGCUGU [A15G A60C], 0.43.
